This is an account of results in paper PMC4538832, “Structures of the T. brucei kRNA editing factor MRB1590 reveal unique RNA-binding pore motif contained within an ABC-ATPase fold” (Nucleic Acids Research, 2015).

The term stoichiometry N denotes a count of units in the complex or per binding partner.

The data set concerns the molecule itself. As to the kind of experiment: SEC; Superdex 200; 5 mg/ml protein; 20 mM Tris-HCl pH 7.5, 300 mM NaCl, 5% glycerol; elution volume compared with standard proteins. For orientation: In gel filtration, larger molecules generally elute earlier.

B1: MRB1590(10–668) (domain or fragment, T. brucei, UniProt Q57ZF2 10-668, looked up)
chain: YRGGRGGGRGHSHWHNNAPMERGGHMPSNNEGAAISSGSTGFSPLMDFFHSVEGRNYGELRSLTNETYQISENVRCTFLSIQSDPFAPGSQVRLVCPCTFSLEKVLQTTDLAAANPCRRVAAEDFILRSFHAGYRNGIPRRTSGAVQVLRPSQHVLERSTVGLVKAHQQKSGMQAEIEIFARVKLPGHGRRIDGHGAIDIFYNELVPLLEQCVVGLNEEDLHQHVICVHDQEVLRSNLLGAGYVAFVANGAILPRDAGNSDKPLRDNAVPFQSPKSLECSFTLPHSGKTITGMGLPPGLTLIAGGGFHGKSTLLRALEVGIYNHVPDDGRTYVVVDPTAVKIRAEDRRSVHGVDISPFINNLPFGKTTNFFVTADASGSTSQAANIMEALELGSQLLLLDEDTCATNLMYRDALMQMLVPRAQEPITPFVERVADLSQNHGVSSIMVIGGSGQYFPQARVVLVMNAYQISDCTKEAKEIASNSSLPALNPPGDTASVFIPDVNRCFDPDGSFTTVRRRRGREGTKVSGIGTESIRFSEETIDLSMVEQIVEEGQVNAIAQCLALLYDGEPRIVPEMTTKGGALTQLPSPGGVCEIQRGKFNSNFSSMIAGCCSHQHDKRLELRTPSCYLPRGFTSATRHIEIGAALNRLRTLRTVTAKR
notes: MRB1590, Trypanosoma brucei, residues 10-668 (N-terminal truncation of the full length protein); also called MRB1590–AMP–PNP complex; MRB1590-ADP, crystal form 2 (with poly-U); source: E. coli C41(DE3), purified (nickel-nitrilotriacetic acid column)
Turning to B1, the “stoichiometry N” value stood at 2.
